One may read the Kd as a measure of binding affinity in units of concentration.

The target of the assay is HIV-1 JRFL gp140 Recombinant protein (HIV-1 JRFL). Put plainly: Attana Cell A200 QCM; IgG captured on anti-human IgG Fc; gp140 at 25, 50 and 100 nM; 1:1 fit.

Residue numbers refer to the chain shown, from its start.

B1: 7B2 IgG (antibody, V domains shown)
VH: QVQLVQSGGGVFKPGGSLRLSCEASGFTFTEYYMTWVRQAPGKGLEWLAYISKNGEYSKYSPSSNGRFTISRDNAKNSVFLQLDRLSADDTAVYYCARADGLTYFSELLQYIFDLWGQGARVTVSS
VL: DIVMTQSPDSLAVSPGERATIHCKSSQTLLYSSNNRHSIAWYQQRPGQPPKLLLYWASMRLSGVPDRFSGSGSGTDFTLTINNLQAEDVAIYYCHQYSSHPPTFGHGTRVEIK
As to B1, the Kd was determined as 2.9 nM.

B2: 7B2GL IgG (antibody, V domains shown)
VH: QVQLVESGGGLVKPGGSLRLSCAASGFTFSEYYMTWIRQAPGKGLEWVSYISKNGEYSKYSPSSNGRFTISRDNAKNSLYLQMNSLRAEDTAVYYCARADGLTYFSELLQYIFDLWGQGTLVTVSS
VL: B1 VL with P15L, H22N, R45K, L54I, N82S, N83S, I91V, H106Q, R109K
Consider B2, for which the dissociation constant Kd is 2.9 nM.

The values above are taken from US20210246194A1.
